According to PMC4041471, “Cas6 specificity and CRISPR RNA loading in a complex CRISPR-Cas system” (Nucleic Acids Research, 2014):

Legend:
[1] = molecular target: Recombinant Cas6-1 (Sso1437) (S. solfataricus) (UniProt Q97Y96); test: SEC; recombinant Cas6-1 alone on Superdex 200 in GF buffer (20 mM sodium phosphate pH 7.5, 250 mM NaCl, 5 mM EDTA, 0.5 mM DTT)
Cas6-1 [2] = molecular target: T1, Cas6-1 (Saccharolobus/Sulfolobus solfataricus P2, UniProt Q97Y96 1-287); test: EMSA; 20 C; apparent Kd, no intermediate bands; EMSA: NR buffer (composition not in material) with 2 uM BSA, 0.5 nM RNA (legend: 1 nM), 15 min at 20 C, 6% native PAGE in 1x TBE; fluorescence quenching at 25 C, buffer not in material; settings: protein: recombinant; chain copies: 2; label: 5'-32P
T1 sequence: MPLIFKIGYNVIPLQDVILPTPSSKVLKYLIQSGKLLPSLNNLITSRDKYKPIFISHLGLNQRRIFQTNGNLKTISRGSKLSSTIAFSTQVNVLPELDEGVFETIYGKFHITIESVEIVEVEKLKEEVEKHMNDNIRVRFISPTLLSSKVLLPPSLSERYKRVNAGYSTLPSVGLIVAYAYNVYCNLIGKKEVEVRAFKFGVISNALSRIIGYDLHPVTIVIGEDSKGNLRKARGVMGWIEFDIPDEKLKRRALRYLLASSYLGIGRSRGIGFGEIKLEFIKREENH

[3] = molecular target: the molecule itself; test: SEC; S. solfataricus cell lysate on Superdex 200 in GF buffer (20 mM sodium phosphate pH 7.5, 250 mM NaCl, 5 mM EDTA, 0.5 mM DTT); 2 ml fractions analysed by western blotting
Cas6-1 [4] = molecular target: T1, Cas6-1; test: fluorescence quenching; 25 C; apparent Kd, fit with variable Hill coefficient; EMSA: NR buffer (composition not in material) with 2 uM BSA, 0.5 nM RNA (legend: 1 nM), 15 min at 20 C, 6% native PAGE in 1x TBE; fluorescence quenching at 25 C, buffer not in material; settings: protein: recombinant; chain copies: 2; label: 5'-FAM
Cas6-1 [5] = molecular target: T1, Cas6-1; test: fluorescence quenching; 25 C; apparent Kd, fit with variable Hill coefficient; partial cleavage not ruled out; EMSA: NR buffer (composition not in material) with 2 uM BSA, 0.5 nM RNA (legend: 1 nM), 15 min at 20 C, 6% native PAGE in 1x TBE; fluorescence quenching at 25 C, buffer not in material; settings: protein: recombinant; chain copies: 2; label: 5'-FAM
Cas6-1 [6] = molecular target: T1, Cas6-1; test: EMSA; 20 C; apparent Kd, intermediate shifted species; EMSA: NR buffer (composition not in material) with 2 uM BSA, 0.5 nM RNA (legend: 1 nM), 15 min at 20 C, 6% native PAGE in 1x TBE; fluorescence quenching at 25 C, buffer not in material; settings: protein: recombinant; chain copies: 2; label: 5'-32P

## Recombinant Cas6-1 (Sso1437) (from UniProt Q97Y96 1-287) (enzyme)
[1]
  stoichiometry N: 2

B1: AB-repeat RNA (32P) (ssRNA)
RNA: GAUUAAUCCCAAAAGGAAUUGAAAG
Cas6-1 [2]
  Kd: 350 nM

B2: Cmr7 (Sso1986) subunit of CMR, free protein in the lysate (natural protein, UniProt Q97WX5 1-197, looked up)
chain: MTSGAGWEEQVFLPITNSISSEDNNQIKIGSSVSIEYNQNGQHVSQIDDKGLHNILVLTGYAIDESTGELVPTFDPCDYVKGILISGKILKGNHFKIIGIPSNKLYIIRKKDVHGNITFSLPIKNFNTGTYQVDLRDKVTSFVSLDRDVAKTIVDNVLAKIYAKIYNSLNKEQKDKLYRDVEEIFNYYSIKSLKSNP
notes: Cmr7 (Sso1986), subunit of the CMR complex of Sulfolobus solfataricus; also called dimeric Cmr7 protein; source: endogenous, S. solfataricus lysate
[3]
  stoichiometry N: 2

B3: FAM-CDproduct RNA (ssRNA)
RNA: UGAUAAUCUCUUAUAGA
modifications: 3'-phosphate
Cas6-1 [4]
  Kd: ~14 nM

B4: FAM-CD repeat RNA (ssRNA)
RNA: UGAUAAUCUCUUAUAGAAUUGAAAG
Cas6-1 [5]
  Kd: ~14 nM

B5: CD-repeat RNA (32P) (ssRNA)
RNA: GAUAAUCUCUUAUAGAAUUGAAAG
Cas6-1 [6]
  Kd: ~16 nM
